target: T1, HLA-A*01:01 (human); assay: UV-ligand exchange, anti-b2m ELISA
T1 construct: MHC class I monomer first loaded with a UV-sensitive peptide (not identified) that is cleaved by UV irradiation and exchanged for the tested peptide; captured on streptavidin plates, detected with anti-β2m; also called peptide-receptive MHC molecules
Text: Candidate peptides for T cell based therapies according to the present invention were further tested for their MHC binding capacity (affinity). The individual peptide-MHC complexes were produced by UV-ligand exchange, where a UV-sensitive peptide is cleaved upon UV-irradiation and exchanged with the peptide of interest as analyzed. Only peptide candidates that can effectively bind and stabilize the peptide-receptive MHC molecules prevent dissociation of the MHC complexes. To determine the yield of the exchange reaction, an ELISA was performed based on the detection of the light chain (β2m) of stabilized MHC complexes. The assay was performed as generally described in Rodenko et al. (Rodenko et al., 2006)
96 well MAXISorp plates (NUNC) were coated over night with 2 ug/ml streptavidin in PBS at room temperature, washed 4× and blocked for 1 h at 37° C. in 2% BSA containing blocking buffer. Refolded HLA-A*02:01/MLA-001 monomers served as standards, covering the range of 15-500 ng/ml. Peptide-MHC monomers of the UV-exchange reaction were diluted 100-fold in blocking buffer. Samples were incubated for 1 h at 37° C., washed four times, incubated with 2 ug/ml HRP conjugated anti-β2m for 1 h at 37° C., washed again and detected with TMB solution that is stopped with […]. Absorption was measured at 450 nm.

Row | peptide exchange yield [%] | Binder
1 | 20 to 50 | FTTLSDLQTNMA
2 | 20 to 50 | IGDKVDAVY
3 | 20 to 50 | KASSVSAEDGY
4 | 20 to 50 | LEDGIEQSAY
5 | 50 to 75 | SPAKQFNIY
6 | 20 to 50 | FLKVTGYDKDDY
7 | 50 to 75 | AQVQDTGRY
8 | 50 to 75 | LSDAVHVEF
9 | 50 to 75 | IPVHDSVGVTY
10 | 20 to 50 | NSNLKFLEV
11 | > 75 | TLDSTRTLY
12 | 20 to 50 | NEIDIHSIYFY
13 | 20 to 50 | HVSGQMLYF
14 | 20 to 50 | ISEDKSISF
15 | 20 to 50 | SADEAHGLL
16 | 20 to 50 | LLKAKDILY
17 | 50 to 75 | ITDTLIHLM
18 | 50 to 75 | IEKFAVLY
19 | 20 to 50 | RTIEGDFLW
20 | 50 to 75 | YTDFVGEGLY
21 | 20 to 50 | TFDKQIVLL
22 | 20 to 50 | PIMSSSQALY
23 | 50 to 75 | VSERTGISY
24 | 20 to 50 | ISEAPLTEV
25 | 50 to 75 | ITDVGPGNY
26 | 20 to 50 | STIDFRAGF
27 | 50 to 75 | ASDHWRGRY

Row | peptide exchange yield [%] | Binder
28 | 20 to 50 | NTHTGTRPY
29 | > 75 | ASCRSSAEY
30 | > 75 | YTEFVDATFTK
31 | 10 to 20 | VPFNLITEY
32 | 20 to 50 | AVAAAAGASLY
33 | 20 to 50 | PVHDSVGVTY
34 | 50 to 75 | LTWAHSAKY
35 | 50 to 75 | EVVEGKEWGSFY
36 | 20 to 50 | YEVDTKLLSL
37 | 50 to 75 | QSEKEPGQQY
38 | 50 to 75 | EAYLERIGY
39 | > 75 | TTENSGNYY
40 | 20 to 50 | YIGLKGLYF
41 | 20 to 50 | VVFDKSDLAKY
42 | > 75 | FQYELRELY
43 | > 75 | TTDPKKFQY
44 | 50 to 75 | RTHIGYKVY
45 | 20 to 50 | SAPSSSGSPLY
46 | 20 to 50 | TPIPFDKILY
47 | 20 to 50 | ITDTLIHL
48 | 20 to 50 | TVFDENLSRY
49 | 20 to 50 | RSDIGEFEW
50 | 20 to 50 | LCATVCGTEQY
51 | 20 to 50 | DAVAPGREY
52 | 20 to 50 | SQHIFTVSY
53 | 50 to 75 | RRLNFSGFGY
54 | 10 to 20 | GTKQWVHARY

Reference: US20200087364A1 (IMMATICS BIOTECHNOLOGIES, published 2020)
